One protein from publication PMC6269424 can be followed below.

Data set [1] is described as follows: western blot of adipose tissue. Conditions: glycan lost; control: HFD-fed Con (OGTflox) mice.
The nature of data set [2]: phospho-PPARγ western blot of adipose tissue. Conditions: glycan lost; control: HFD-fed Con (OGTflox) mice. (A western blot detects proteins with antibodies after separation by electrophoresis.)

B1: PPARγ2: adipocyte-specific OGT knockout (FKO) (protein)
parent chain: MGETLGDSPVDPEHGAFADALPMSTSQEITMVDTEMPFWPTNFGISSVDLSVMEDHSHSFDIKPFTTVDFSSISAPHYEDIPFTRADPMVADYKYDLKLQEYQSAIKVEPASPPYYSEKTQLYNRPHEEPSNSLMAIECRVCGDKASGFHYGVHACEGCKGFFRRTIRLKLIYDRCDLNCRIHKKSRNKCQYCRFQKCLAVGMSHNAIRFGRMPQAEKEKLLAEISSDIDQLNPESADLRALAKHLYDSYIKSFPLTKAKARAILTGKTTDKSPFVIYDMNSLMMGEDKIKFKHITPLQEQSKEVAIRIFQGCQFRSVEAVQEITEYAKNIPGFINLDLNDQVTLLKYGVHEIIYTMLASLMNKDGVLISEGQGFMTREFLKNLRKPFGDFMEPKFEFAVKFNALELDDSDLAIFIAVIILSGDRPGLLNVKPIEDIQDNLLQALELQLKLNHPESSQLFAKVLQKMTDLRQIVTEHVQLLHVIKKTETDMSLHPLLQEIYKDLY
Turning to B1, the expression_or_secretion result in data set [1] is reported as “decreases”. In addition, the “other: Ser112 phosphorylation” value in data set [2] is “increases”.
